Biological target: ACE2 protein (recombinant human, CUSABIO no. CSB-MP866317HU) (human, UniProt Q9BYF1 18-740)
Assay: SPR; […] (50 ug/mL in sodium acetate pH 4.0, 10 uL/min, 420 s); […]; Biacore T200; […]
Details: both partners purified

Sequence of ACE2 protein (recombinant human, CUSABIO no. CSB-MP866317HU) (Q9BYF1 18-740): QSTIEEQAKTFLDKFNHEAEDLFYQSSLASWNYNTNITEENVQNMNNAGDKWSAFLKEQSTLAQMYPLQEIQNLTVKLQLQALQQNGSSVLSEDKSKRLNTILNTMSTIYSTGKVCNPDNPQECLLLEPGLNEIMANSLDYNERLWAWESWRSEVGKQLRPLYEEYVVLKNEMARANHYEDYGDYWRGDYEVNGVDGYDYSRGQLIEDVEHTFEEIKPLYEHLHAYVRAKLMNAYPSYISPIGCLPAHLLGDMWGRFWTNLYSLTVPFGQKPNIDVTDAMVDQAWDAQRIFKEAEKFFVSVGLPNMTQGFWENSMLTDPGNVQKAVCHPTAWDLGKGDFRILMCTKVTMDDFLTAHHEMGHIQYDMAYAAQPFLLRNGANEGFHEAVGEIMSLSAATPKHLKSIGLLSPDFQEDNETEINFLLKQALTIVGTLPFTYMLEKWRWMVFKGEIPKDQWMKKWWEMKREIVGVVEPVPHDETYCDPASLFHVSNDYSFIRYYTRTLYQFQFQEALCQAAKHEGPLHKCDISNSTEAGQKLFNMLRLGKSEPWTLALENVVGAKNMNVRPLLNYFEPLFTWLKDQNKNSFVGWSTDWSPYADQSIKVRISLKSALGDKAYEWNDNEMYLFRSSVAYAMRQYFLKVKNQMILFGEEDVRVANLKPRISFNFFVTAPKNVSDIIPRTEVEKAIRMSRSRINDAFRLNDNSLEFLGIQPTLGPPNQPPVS

For KKCHFWPFPW [KKCH peptide], the Kd was 624 nM, the koff was 0.0958 s⁻¹ and the kon was 154000 M⁻¹ s⁻¹.
